Measurements from patent US20170233490A1 (Hoffmann-La Roche, published 2017).

What was measured:
[1] = biological target: T1, human HER3 Extracellular Domain (ECD) (human, UniProt P21860 20-643); assay: ELISA, coated antigen
T1 construct: human recombinant, 68 kDa; 'closed' conformation without ligand; also called Her3 ECD; Her-3 ECD
Method: (§1) For the ELISA the screening an antigen down format was used. […] Hybridoma Supernatant was added to the plates and incubated for 1 h at room temperature. Bound antibody was detected with a HRP-labeled F(ab′)₂ goat anti-mouse Fcγ (Dianova) and ABTS (Roche) was used as a HRP-substrate.
(§2) As negative controls the scaffold proteins TtSlyDcas and TgSlyDΔIF were used.

[2] = biological target: T2, human HER1 Extracellular Domain (ECD) (human, UniProt P00533 25-645); assay: ELISA, coated antigen
T2 construct: also called Her1 ECD; HER1-ECD
Method: as §1, §2

[3] = biological target: T3, human HER2 Extracellular Domain (ECD) (human, UniProt P04626 23-652); assay: ELISA, coated antigen
T3 construct: human recombinant, 69.6 kDa; also called Her2 ECD; HER2_ECD
Method: as §1, §2

TtSlyDcas [4] = biological target: T4, TtSlyDcas; assay: ELISA, coated antigen
T4 construct: scaffold without hairpin insert, negative control
T4 chain: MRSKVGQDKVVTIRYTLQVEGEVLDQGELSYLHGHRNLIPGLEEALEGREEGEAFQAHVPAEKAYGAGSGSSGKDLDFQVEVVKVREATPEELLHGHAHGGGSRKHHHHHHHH
Method: as §1, §2

TgSlyDΔIF = biological target: T5, TgSlyDΔIF; assay: ELISA, coated antigen
T5 construct: scaffold without hairpin insert, negative control
T5 chain: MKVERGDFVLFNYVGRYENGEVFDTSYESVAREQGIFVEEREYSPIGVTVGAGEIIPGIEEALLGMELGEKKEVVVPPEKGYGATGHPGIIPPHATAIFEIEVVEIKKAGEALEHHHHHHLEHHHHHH
Method: as §1, §2

TtSlyDcas-Her3 = biological target: T6, TtSlyDcas-Her3; assay: ELISA, coated antigen
T6 chain: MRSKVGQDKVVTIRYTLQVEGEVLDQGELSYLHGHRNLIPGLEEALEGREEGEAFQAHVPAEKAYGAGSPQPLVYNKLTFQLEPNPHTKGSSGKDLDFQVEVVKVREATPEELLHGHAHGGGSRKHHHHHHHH
Method: as §1, §2

TtSlyDcys-Her3 = biological target: T7, TtSlyDcys-Her3; assay: ELISA, coated antigen
T7 chain: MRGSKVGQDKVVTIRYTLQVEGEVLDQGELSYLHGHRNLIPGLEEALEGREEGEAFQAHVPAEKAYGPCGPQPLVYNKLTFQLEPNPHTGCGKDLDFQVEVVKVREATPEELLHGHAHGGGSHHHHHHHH
Method: as §1, §2

TgSlyDser-Her3 = biological target: T8, TgSlyDser-Her3; assay: ELISA, coated antigen
T8 chain: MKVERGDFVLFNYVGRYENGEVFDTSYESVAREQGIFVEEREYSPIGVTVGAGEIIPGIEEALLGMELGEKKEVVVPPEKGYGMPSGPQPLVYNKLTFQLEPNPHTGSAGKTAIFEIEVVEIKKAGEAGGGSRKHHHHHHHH
Method: as §1, §2

TgSlyDcys-Her3 = biological target: T9, TgSlyDcys-Her3; assay: ELISA, coated antigen
T9 chain: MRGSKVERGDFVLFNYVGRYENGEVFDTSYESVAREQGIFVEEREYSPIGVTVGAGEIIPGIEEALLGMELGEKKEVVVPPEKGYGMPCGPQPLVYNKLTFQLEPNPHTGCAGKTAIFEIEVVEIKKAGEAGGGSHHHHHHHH
Method: as §1, §2

TtSlyDcas [5] = biological target: T4, TtSlyDcas; assay: SPR Biacore T200, antibody captured, 25 C
Method: A Biacore T200 instrument (GE Healthcare) was mounted with a CMS series sensor. The sensor was normalized in HBS-ET buffer (10 mM HEPES pH 7.4, 150 mM NaCl, 3 mM EDTA, 0.05% w/v Tween 20) according to the manufacturer's instructions. The sample buffer was the system buffer supplemented with 1 mg/ml CMD (Carboxymethyldextran, Sigma #86524). The system operated at 25° C. 6500 RU RAM-Fcγ (relative units of Fcγ-fragment RamIgG, GE Healthcare) were immobilized according to the manufacturer's instructions using amine coupling EDC/NHS chemistry on all four flow cells. The sensor was deactivated using 1M ethanolamine. […] Concentration dependent kinetics were measured. […] All analytes were injected for 5 min association time and 10 min dissociation time at 100 μl/min flow rate. The sensor capture system was regenerated by a 3 min injection at 10 μl/min of 10 mM glycine pH 1.7. Where possible kinetic data was evaluated using the Biacore T200 evaluation software.

[6] = biological target: T10, human HER2 (full length, on cells) (human, UniProt P04626 23-1255); assay: IHC (Ventana Benchmark XT) on formalin-fixed, paraffin-embedded HEK293 cells transiently transfected with full length HER2
T10 construct: HEK293 cells transfected with full length HER2 (IHC); MCF-7 cells (co-immunoprecipitation)
Method: All selected clones were tested for reactivity and specificity in IHC. […] After an additional fixation in formalin overnight the Agarose blocks were embedded in paraffin. Untransfected HEK293 cells were used as negative controls and treated accordingly to the transfected cells. After paraffin embedding 3 μm thin sections were prepared using a microtome. The sections were mounted on glass microscopy slides and dried for 2 h. All further steps of the immunohistochemical staining procedure were carried out using a Ventana Benchmark XT. The slides were dewaxed and antigen retrieval was performed by applying heat for 1 hour. For antigen retrieval the Ventana buffer CC1 was used. The antibodies were used at a concentration of 1 μg/ml. For the detection of bound antibody the Ventana UltraView detection kit was used.

B1: anti-HER3/HER4 antibody M-05-74 (antibody, V domains shown)
VH: QVQLQQSGAELAKPGASVKMSCKTSGYTLTDYWIHWVKQRPGQGLEWIGYINPYTGYTESNQKFKDKATLTADKSSNTAYIQLSSLTSEDSAVYYCARPYYYGDYWGQGTTLTVSS
VL: QIVLTQSPAIMSASPGERVTITCSASSSVSYMHWFQQKPGTSPKLLIYSTSNLASGVPARFSGSGSGTSYSLTISRMEAEDAATYYCQQRSSYPFTFGSGTKLEIK
notes: murine monoclonal IgG from hybridoma (supernatant or purified), bivalent; also called M-074; M-5-74
- ELISA signal [1]: 3.15
- ELISA signal [2]: 0.018
- ELISA signal [3]: 0.02
- ELISA signal (TtSlyDcas [4]): 0.023
- ELISA signal (TgSlyDΔIF): 0.02
- ELISA signal (TtSlyDcas-Her3): 3.13
- ELISA signal (TtSlyDcys-Her3): 3.15
- ELISA signal (TgSlyDser-Her3): 3.16
- ELISA signal (TgSlyDcys-Her3): 3.16
- MR (Molar Ratio) (TtSlyDcas [5]): 0
- binding result (TtSlyDcas [5]): no binding (tested: up to 90 nM)
- binding result [6]: no binding (tested: 1 µg/ml)
